The values that follow come from patent US20190119362A1.

Assay [1] has as its target aIgE-Fab (Fab fragment of Omalizumab) (Humanized antibody/IgG1κ). The assay is described as follows: column breakthrough, 1 mg/mL aIgE-Fab, 0.33 mL/min.
The target is the same in assay [2]. The assay is described as follows: ratio of 55% DBC for aIgE-Fab after against before 5 cycles of 50 mM NaOH.
The target is the same in assay [3]. Kind of assay: column breakthrough, 1 mg/mL aIgE-Fab, after 5 cycles of 50 mM NaOH for 30 minutes.
Assay [4] addresses aTNFa-Fab (Fab fragment of Infliximab) (Chimeric antibody/IgG1κ). The assay is described as follows: column breakthrough, 1 mg/mL aTNFa-Fab, quasi-static binding capacity at 55% breakthrough.

With “LB5t-Wild.4d (tetramer of B5 domain of PpL 312), immobilized on agarose carrier”, in assay [1], the 55% DBC before the alkaline washing was determined as 23.6 mg/mL. Moreover, the binding capability maintained after alkaline treatment in assay [2] was 92.8%. The substance further registered a 55% DBC after the alkaline washing in assay [3] of 21.9 mg/mL.
With “commercially available Protein L carrier (HiTrap Protein L, GE Healthcare Bioscience)”, in assay [4], the 55% DBC was determined as 4.8 mg/mL-gel.
